Target: Full-length rat neuronal nitric oxide synthase (nNOS) (rat) (UniProt P29476)
Sequence (P29476 whole entry): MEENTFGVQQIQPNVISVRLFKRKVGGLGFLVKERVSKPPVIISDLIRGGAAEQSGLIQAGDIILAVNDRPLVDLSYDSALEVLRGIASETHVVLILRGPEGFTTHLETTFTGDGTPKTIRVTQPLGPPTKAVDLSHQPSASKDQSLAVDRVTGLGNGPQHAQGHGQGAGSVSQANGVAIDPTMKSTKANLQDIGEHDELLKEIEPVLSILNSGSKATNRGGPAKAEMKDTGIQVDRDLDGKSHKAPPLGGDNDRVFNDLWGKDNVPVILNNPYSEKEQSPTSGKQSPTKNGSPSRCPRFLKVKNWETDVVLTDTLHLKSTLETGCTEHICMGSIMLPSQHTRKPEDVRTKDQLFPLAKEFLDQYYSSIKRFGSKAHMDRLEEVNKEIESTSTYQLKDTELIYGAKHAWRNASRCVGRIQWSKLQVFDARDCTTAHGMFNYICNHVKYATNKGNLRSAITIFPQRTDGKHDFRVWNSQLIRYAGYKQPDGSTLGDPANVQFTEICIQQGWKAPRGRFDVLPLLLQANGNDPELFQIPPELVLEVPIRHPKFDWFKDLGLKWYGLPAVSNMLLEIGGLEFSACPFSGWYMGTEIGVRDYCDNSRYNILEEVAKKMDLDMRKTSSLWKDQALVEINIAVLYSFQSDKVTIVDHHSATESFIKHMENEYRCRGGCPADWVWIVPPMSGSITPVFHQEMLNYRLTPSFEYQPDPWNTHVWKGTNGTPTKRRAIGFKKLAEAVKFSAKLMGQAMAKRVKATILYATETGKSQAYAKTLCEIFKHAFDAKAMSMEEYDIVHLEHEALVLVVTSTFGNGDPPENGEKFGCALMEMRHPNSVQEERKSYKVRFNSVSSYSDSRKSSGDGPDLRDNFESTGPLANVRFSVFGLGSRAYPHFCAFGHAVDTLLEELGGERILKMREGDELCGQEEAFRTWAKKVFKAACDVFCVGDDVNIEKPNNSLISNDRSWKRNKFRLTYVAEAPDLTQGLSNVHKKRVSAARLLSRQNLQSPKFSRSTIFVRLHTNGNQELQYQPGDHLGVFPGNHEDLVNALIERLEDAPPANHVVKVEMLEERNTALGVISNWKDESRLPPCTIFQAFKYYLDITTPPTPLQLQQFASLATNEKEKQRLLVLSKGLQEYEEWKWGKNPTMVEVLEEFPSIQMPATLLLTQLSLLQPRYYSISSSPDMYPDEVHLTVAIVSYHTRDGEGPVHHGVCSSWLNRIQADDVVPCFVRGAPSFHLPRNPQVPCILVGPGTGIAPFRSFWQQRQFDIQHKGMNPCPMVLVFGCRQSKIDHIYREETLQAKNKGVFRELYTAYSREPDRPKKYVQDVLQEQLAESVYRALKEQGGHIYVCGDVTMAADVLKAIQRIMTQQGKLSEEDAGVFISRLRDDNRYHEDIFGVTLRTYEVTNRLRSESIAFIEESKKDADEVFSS

## Human calmodulin (CaM), N-terminal His6-TEV tag removed (from UniProt P0DP23 1-149) (natural protein)
  nNOS activity (NO synthesis, oxyhemoglobin assay) of 2.0 μM nNOS against increasing CaM concentration; CaM concentration at maximal activation: 2.4 µM

Reference: article PMC10716779
